Experiments:
[1] = target: haemagglutinin (HA) of human influenza A type virus strain A/Okuda/57 (H2N2 subtype) (human influenza A type virus, H2N2 subtype, strain A/Okuda/57)
[2] = target: haemagglutinin (HA) of human influenza A type virus strain A2/Aichi/2/68 (H3N2 subtype) (human influenza A type virus, H3N2 subtype, strain A2/Aichi/2/68) (UniProt P03437)
[3] = target: haemagglutinin (HA) of human influenza A type virus strain A/PR/8/34 (H1N1 subtype) (human influenza A type virus, H1N1 subtype, strain A/PR/8/34) (UniProt P03452)
[4] = target: haemagglutinin (HA) of human influenza A type virus strain A/Ibaraki/1/90 (H3N2 subtype) (human influenza A type virus, H3N2 subtype, strain A/Ibaraki/1/90)
[5] = target: haemagglutinin (HA) of human influenza A type virus strain A/Sichuan/2/87 (H3N2 subtype) (human influenza A type virus, H3N2 subtype, strain A/Sichuan/2/87)
[6] = target: haemagglutinin (HA) of human influenza A type virus strain A/Izumi/5/65 (H2N2 subtype) (human influenza A type virus, H2N2 subtype, strain A/Izumi/5/65)
[7] = target: haemagglutinin (HA) of human influenza A type virus strain A1/FM/1/47 (H1N1 subtype) (human influenza A type virus, H1N1 subtype, strain A1/FM/1/47)
[8] = target: haemagglutinin (HA) of human influenza A type virus strain A/Suita/1/89 (H1N1 subtype) (human influenza A type virus, H1N1 subtype, strain A/Suita/1/89)
[9] = target: haemagglutinin (HA) of human influenza A type virus strain A/Fukuoka/C29/85 (H3N2 subtype) (human influenza A type virus, H3N2 subtype, strain A/Fukuoka/C29/85)
[10] = target: haemagglutinin (HA) of human influenza A type virus strain A/Yamagata/120/86 (H1N1 subtype) (human influenza A type virus, H1N1 subtype, strain A/Yamagata/120/86)
[11] = target: haemagglutinin (HA) of human influenza A type virus strain A/Adachi/2/57 (H2N2 subtype) (human influenza A type virus, H2N2 subtype, strain A/Adachi/2/57)
[12] = target: haemagglutinin (HA) of human influenza A type virus strain A/Okuda/57 (H2N2 subtype) (human influenza A type virus, H2N2 subtype, strain A/Okuda/57); remark: listed apart in the source
[13] = target: haemagglutinin (HA) of human influenza A type virus strain A/Bangkok/10/83 (H1N1 subtype) (human influenza A type virus, H1N1 subtype, strain A/Bangkok/10/83)
[14] = target: haemagglutinin (HA) of human influenza A type virus strain A/Kitakyushu/159/93 (H3N2 subtype) (human influenza A type virus, H3N2 subtype, strain A/Kitakyushu/159/93)
[15] = target: haemagglutinin (HA) of human influenza A type virus strain A/Osaka/930/88 (H1N1 subtype) (human influenza A type virus, H1N1 subtype, strain A/Osaka/930/88)
[16] = target: haemagglutinin (HA) of human influenza A type virus strain A/Kumamoto/1/65 (H2N2 subtype) (human influenza A type virus, H2N2 subtype, strain A/Kumamoto/1/65)
[17] = target: influenza B type virus strain B/Nagasaki/1/87 (influenza B type virus, strain B/Nagasaki/1/87)
[18] = target: haemagglutinin (HA) of human influenza A type virus strain A/Suita/1/90 (H3N2 subtype) (human influenza A type virus, H3N2 subtype, strain A/Suita/1/90)
[19] = target: haemagglutinin (HA) of human influenza A type virus strain A2/Aichi/2/68 (H3N2 subtype) (human influenza A type virus, H3N2 subtype, strain A2/Aichi/2/68) (UniProt P03437); remark: listed apart in the source
[20] = target: haemagglutinin (HA) of human influenza A type virus strain A/Kaizuka/2/65 (H2N2 subtype) (human influenza A type virus, H2N2 subtype, strain A/Kaizuka/2/65)
[21] = target: haemagglutinin (HA) of human influenza A type virus strain A/PR/8/34 (H1N1 subtype) (human influenza A type virus, H1N1 subtype, strain A/PR/8/34) (UniProt P03452); remark: listed apart in the source

Molecule “fused polypeptide of scFv of C179 with two Fc binding domain-like structures of protein A” has an Absorbance at 492 nm (absorbance at 492 nm) [1] of 0.303, an Absorbance at 492 nm (absorbance at 492 nm) [2] of 0.074 and an Absorbance at 492 nm (absorbance at 492 nm) [3] of 0.15.

B1: monoclonal antibody C179 (antibody, V domains shown)
VH: EVKLVESGGGLVQPGGSLRLSCGTSGFTLTDDYMTWVRQPPGKALEWLGFIRDRANGYTTEYSASVKGRFTISRDNSQSIVYLQMNTLRVEDSATYYCARPKGYFPYAMDYWGQGT
VL: DIQMTQSPASQSASLGESVTITCLASQTIGTWLAWYQQKPGKSPQLLIYAATSLADGVPSRFSGSGSGTKFSFKISSLQAEDFVSYYCQQLYSTPWTF
Molecule B1 has an HI activity (haemagglutination inhibition, antibody titer) (dilution ratio of the ascites fluid) [4] of less than 32, a Neutralization activity (focus reduction neutralization test, antibody titer) [4] of less than 16 and a Staining activity (antibody titer) [4] of less than 100. It also gave an HI activity (haemagglutination inhibition, antibody titer) (dilution ratio of the ascites fluid) [5] of less than 32, a Neutralization activity (focus reduction neutralization test, antibody titer) [5] of less than 16 and a Staining activity (antibody titer) [5] of less than 100. The HI activity (haemagglutination inhibition, antibody titer) (dilution ratio of the ascites fluid) [6] was less than 32, the Neutralization activity (focus reduction neutralization test, antibody titer) [6] was 1024 and the Staining activity (antibody titer) [6] was 410000. For the same molecule, the HI activity (haemagglutination inhibition, antibody titer) (dilution ratio of the ascites fluid) [7] was less than 32, the Neutralization activity (focus reduction neutralization test, antibody titer) [7] was 512 and the Staining activity (antibody titer) [7] was 410000. It also gave an HI activity (haemagglutination inhibition, antibody titer) (dilution ratio of the ascites fluid) [8] of less than 32, a Neutralization activity (focus reduction neutralization test, antibody titer) [8] of 1024 and a Staining activity (antibody titer) [8] of 410000. The HI activity (haemagglutination inhibition, antibody titer) (dilution ratio of the ascites fluid) [9] was less than 32, the Neutralization activity (focus reduction neutralization test, antibody titer) [9] was less than 16 and the Staining activity (antibody titer) [9] was less than 100. For the same molecule, the HI activity (haemagglutination inhibition, antibody titer) (dilution ratio of the ascites fluid) [10] was less than 32, the Neutralization activity (focus reduction neutralization test, antibody titer) [10] was 1024 and the Staining activity (antibody titer) [10] was 410000. The HI activity (haemagglutination inhibition, antibody titer) (dilution ratio of the ascites fluid) [11] was less than 32, the Neutralization activity (focus reduction neutralization test, antibody titer) [11] was 1024 and the Staining activity (antibody titer) [11] was 1.64e+06. For the same molecule, the HI activity (haemagglutination inhibition, antibody titer) (dilution ratio of the ascites fluid) [12] was less than 32, the Neutralization activity (focus reduction neutralization test, antibody titer) [12] was 1024 and the Staining activity (antibody titer) [12] was 1.64e+06. For the same molecule, the HI activity (haemagglutination inhibition, antibody titer) (dilution ratio of the ascites fluid) [13] was less than 32, the Neutralization activity (focus reduction neutralization test, antibody titer) [13] was 512 and the Staining activity (antibody titer) [13] was 1.64e+06. For the same molecule, the HI activity (haemagglutination inhibition, antibody titer) (dilution ratio of the ascites fluid) [14] was less than 32, the Neutralization activity (focus reduction neutralization test, antibody titer) [14] was less than 16 and the Staining activity (antibody titer) [14] was less than 100. For the same molecule, the HI activity (haemagglutination inhibition, antibody titer) (dilution ratio of the ascites fluid) [15] was less than 32, the Neutralization activity (focus reduction neutralization test, antibody titer) [15] was 512 and the Staining activity (antibody titer) [15] was 410000. The HI activity (haemagglutination inhibition, antibody titer) (dilution ratio of the ascites fluid) [16] was less than 32, the Neutralization activity (focus reduction neutralization test, antibody titer) [16] was 1024 and the Staining activity (antibody titer) [16] was 410000. The HI activity (haemagglutination inhibition, antibody titer) (dilution ratio of the ascites fluid) [17] was less than 32, the Neutralization activity (focus reduction neutralization test, antibody titer) [17] was less than 16 and the Staining activity (antibody titer) [17] was less than 100. It also gave an HI activity (haemagglutination inhibition, antibody titer) (dilution ratio of the ascites fluid) [18] of less than 32, a Neutralization activity (focus reduction neutralization test, antibody titer) [18] of less than 16 and a Staining activity (antibody titer) [18] of less than 100. The HI activity (haemagglutination inhibition, antibody titer) (dilution ratio of the ascites fluid) [19] was less than 32, the Neutralization activity (focus reduction neutralization test, antibody titer) [19] was less than 16 and the HI activity (haemagglutination inhibition, antibody titer) (dilution ratio of the ascites fluid) [20] was less than 32. The Neutralization activity (focus reduction neutralization test, antibody titer) [20] was 2048, the Staining activity (antibody titer) [20] was 410000 and the HI activity (haemagglutination inhibition, antibody titer) (dilution ratio of the ascites fluid) [21] was less than 32. It also gave a Neutralization activity (focus reduction neutralization test, antibody titer) [21] of 512.
